Results on 1 substance are retold here after article PMC3959856.

For this test, the target named is SpyTag-MBP (Streptococcus pyogenes). In words: covalent adduct formation by SDS-PAGE densitometry.

Take “full-length SpyCatcher (as used in the reaction assay of Fig. 4b) (domain or fragment)”: the percent covalent complex formation after 1 min amounted to 40% and the percent covalent complex formation after 10 min stood at 65%.
